In publication PMC12361444:

Target: HAdV-C5 hexon protein (human adenovirus C5) (UniProt P04133)
UniProt P04133, sequence (P04133 whole entry): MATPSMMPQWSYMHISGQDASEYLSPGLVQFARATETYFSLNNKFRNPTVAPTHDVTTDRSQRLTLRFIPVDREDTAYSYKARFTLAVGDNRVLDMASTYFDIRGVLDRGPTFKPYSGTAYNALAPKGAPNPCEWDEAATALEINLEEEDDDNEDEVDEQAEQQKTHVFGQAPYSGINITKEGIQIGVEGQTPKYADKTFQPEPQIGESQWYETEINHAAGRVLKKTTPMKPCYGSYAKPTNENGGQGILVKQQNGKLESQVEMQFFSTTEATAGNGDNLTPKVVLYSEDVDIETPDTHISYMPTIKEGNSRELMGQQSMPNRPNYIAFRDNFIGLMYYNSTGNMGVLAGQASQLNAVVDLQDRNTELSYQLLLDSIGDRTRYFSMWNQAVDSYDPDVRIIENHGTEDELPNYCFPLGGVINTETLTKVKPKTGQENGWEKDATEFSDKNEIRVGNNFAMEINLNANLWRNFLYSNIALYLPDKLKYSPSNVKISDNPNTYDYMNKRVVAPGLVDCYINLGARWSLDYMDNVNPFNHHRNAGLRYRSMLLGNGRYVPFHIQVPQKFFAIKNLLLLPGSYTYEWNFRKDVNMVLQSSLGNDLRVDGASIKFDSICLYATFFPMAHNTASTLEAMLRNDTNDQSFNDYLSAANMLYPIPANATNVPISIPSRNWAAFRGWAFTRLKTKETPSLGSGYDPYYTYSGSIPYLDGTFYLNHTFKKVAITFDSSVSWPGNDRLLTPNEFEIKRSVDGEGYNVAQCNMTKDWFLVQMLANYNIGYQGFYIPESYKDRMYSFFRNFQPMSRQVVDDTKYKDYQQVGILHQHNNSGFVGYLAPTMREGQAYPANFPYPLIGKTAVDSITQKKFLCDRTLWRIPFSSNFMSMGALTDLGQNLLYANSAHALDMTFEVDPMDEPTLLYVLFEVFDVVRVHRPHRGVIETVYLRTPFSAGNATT

Human lactoferricin 1-49 (peptide)
qPCR of cell-bound HAdV-C5 genomes on myoblasts (5000 vp/cell, 2 µM Lfcin, on ice 30 min), with versus without Lfcin: 20 fold
